The text below walks through data of US20150119340A1, “FUSION PEPTIDE AND USE THEREOF FOR CELL MEMBRANE PENETRATING” (Samsung Electronics Co., Ltd., priority 2013, published 2015).

For the assay, the system named is MDA-MB-231 cells. Description: Anticancer effect: cell viability (proliferation assay kit). The class given is cell-based. The conditions noted are these: various concentrations, 72 hours after the conjugate treatment, FIG. 11. On the procedure: MDA-MB-231 cells were incubated at the amount of about 5,000-8,000 cells/well in 96 well plate for 24 hours, and then, treated with each of the obtained conjugates MTS-BAA-p16M7 and Tat-p16M7 at various concentrations (refer to FIG. 11). 24 hours or 72 hours after, the viability of the cells was measured by reading the fluorescent intensity of viable cells using titer® proliferation assay kit (Promega) according to manufacturer's manual. The results were normalized based on the results from a control (non-treated) group, and plotted (the value of the control group: “1”). The experiment was conducted in triplicate, and the error was treated using a standard deviation.
The obtained results (results obtained at 72 hours after the conjugate treatment) are illustrated in FIG. 11.

B1: Tat-p16M7: Comparison conjugate of TAT peptide and p16M7 (SEQ ID NO: 20-SEQ ID NO: 16) (protein)
chain: RKKRRQRRRMEPAAGSSMEPSADKLATAAARGRVEEVRALLEAGADPNAPNSYGRRPIQVMMMGSARVAELLLKHGAEPNSADPATSTRPVHDAAREGFLDTLVVLHRAGARLDARDAWGRTPVDLAEELGHRDVARYLRAAAGGTRGSNHARIDAAEGPSDIPD
modifications: Synthetic (TAT peptide); Synthetic (p16 variant (p16M7))
As for B1, the “inhibitory effect on cancer cell proliferation (relative viability)” value was “nearly no inhibitory effect on cancer cell proliferation”.
